Patent US10100120B2, “Antibody which specifically binds to human CRTH2” (KYOWA HAKKO KIRIN CO., LTD, priority 2015, dated 2018)

Key:
[1] = target: T1, mutated human CRTH2 with amino acid substitution (Homo sapiens, UniProt Q9Y5Y4, D177A/G178A/R179A); experiment: Epitope analysis using CHO-S cells which express mutated human CRTH2 with amino acid substitution; assay type: binding; conditions: mutant D177A, G178A, and R179A; antibody 10 μg/mL; relative to wild-type = 100%
T1 construct: inserting genes encoding various mutants with amino acid substitution obtained by deleting termination codons; expressed in transfected cells; host or cells: CHO-S cells (Lifetechnologies), transient (phmAG1-MNLinker vector)
T1 sequence (Q9Y5Y4 1-395 D177A/G178A/R179A): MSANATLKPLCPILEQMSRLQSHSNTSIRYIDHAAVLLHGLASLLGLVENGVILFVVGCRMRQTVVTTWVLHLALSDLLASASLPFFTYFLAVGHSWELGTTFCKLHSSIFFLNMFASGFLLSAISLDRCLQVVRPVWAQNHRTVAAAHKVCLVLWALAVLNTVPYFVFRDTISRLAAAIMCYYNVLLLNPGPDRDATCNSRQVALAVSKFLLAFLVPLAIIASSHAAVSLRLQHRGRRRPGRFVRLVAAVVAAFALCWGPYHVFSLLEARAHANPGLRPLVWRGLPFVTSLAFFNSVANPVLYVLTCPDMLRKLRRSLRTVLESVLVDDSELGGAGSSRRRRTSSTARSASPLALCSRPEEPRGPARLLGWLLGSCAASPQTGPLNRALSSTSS
Procedure: (§1) A mutant with amino acid substitution expression vector obtained by partially substituting amino acid residues in an extracellular region with other amino acid residues among the amino acid sequences of human CRTH2 was prepared. Specifically, mutant with amino acid substitution expression vectors obtained by substitution of S2A; N4A; T6A and L7A; K8A, P9A, and L10A; P12A, L14A, and EISA; Q16E, R19H, and Q21R; H23A, S24A, and N25A; T26A, S27A, and I28A; D171A, T172A, and I173A; S174A, R175A, and L176A; D177A, G178A, and R179A; 1180A and M181A; Y183A, Y184A, and N185A; L187A, L188A, and L189A; N190A; P191A; G192A; P193A; D194A; R195A; D196A, and T198A; N275A, G277A, and L278A; P276A; P279A and L281A; P280A; or V282A, R283A, and R284A in the amino acid sequences represented by SEQ ID NO: 2 were respectively prepared. It should be noted that the above symbols in the amino acid substitution indicate [single letter code of an amino acid residue before substitution] [substitution position counting from the N terminal] [single letter code of the amino acid reside after substitution].
(§2) Azami-Green tag was added to the intercellular C terminal region by inserting genes encoding various mutants with amino acid substitution obtained by deleting termination codons to the restriction enzyme sites of BamHI and HindIII using phmAG1-MNLinker (MBL) as expression vectors.
(§3) The above-described vectors expressing mutants with amino acid substitution were prepared using 1) a method of entirely synthesizing gene sequences encoding mutants with amino acid substitution and inserting the gene sequences into a vector or 2) a method of performing site-specific mutation from a vector into which DNA which encodes the amino acid sequences of wild-type human CRTH2 represented by SEQ ID NO: 1 was inserted.
(§4) CHO-S cells (Lifetechnologies) were used for preparing mutated human CRTH2 with amino acid substitution expressing cell lines. Free style CHO expression medium (Invitrogen) containing 8 mM L-Glutamine (Invitrogen) was used for subculturing cells and the cells were cultured by shaking under the conditions of 37° C. in the presence of 5% CO2.
(§5) 25 μg of the mutated human CRTH2 with amino acid substitution expression vector prepared in (1) described above was dissolved in 400 μL of Opti-Pro SFM (Invitrogen) and 25 μL of a Freestyle MAX Reagent (Invitrogen) was dissolved in 400 μL of Opti-Pro SFM and each of them were allowed to stand at room temperature for 5 minutes. The two liquids were mixed with each other and allowed to stand at room temperature for 15 minutes. The mixed solution was added to the CHO-S culture solution and the cells were cultured for 24 hours, thereby obtaining cell lines which express mutated human CRTH2 with amino acid substitution.
(§6) The CHO-S cells which express mutated human CRTH2 with amino acid substitution established in (2) were washed with SM, seeded in a 96-well plate such that one well has 2×10^5 cells, and centrifuged at 1700 rpm for 2 minutes. After the supernatant was removed, chLym2, LV0HV1, the anti-human CRTH2 antibody hu19A2 v52, hu8B1 v1, ch3C12, or ch31A5 prepared in Example 9, or a commercially available anti-human CRTH2 antibody BM16 (Santa Cruz) prepared to have a concentration of 10 μg/mL using SM was added thereto to cause a reaction at 4° C. for 1 hour.
(§7) After the cells were washed, goat anti-Human IgG Alexa 647 (Molecular Probes) diluted with SM was added to wells to which chLym2, LV0HV1, hu19A2 v52, hu8B1 v1, ch3C12, or ch31A5 was added and goat anti-Rat IgG Alexa 647 (Molecular Probes) diluted with SM was added to wells to which BM16 was added at a final concentration of 10 μg/mL to cause a reaction at 4° C. for 1 hour.
(§8) After the reaction, the cells were washed and suspended with SM, and the fluorescent intensity was analyzed by flow cytometry (BD Biosciences, FACS CantoII). […]

[2] = target: T2, mutated human CRTH2 with amino acid substitution (Homo sapiens, UniProt Q9Y5Y4, D194A); experiment: as above; assay type: binding; conditions: mutant D194A; antibody 10 μg/mL; relative to wild-type = 100%
T2 construct: inserting genes encoding various mutants with amino acid substitution obtained by deleting termination codons; expressed in transfected cells; host or cells: CHO-S cells (Lifetechnologies), transient (phmAG1-MNLinker vector)
T2 sequence (Q9Y5Y4 1-395 D194A): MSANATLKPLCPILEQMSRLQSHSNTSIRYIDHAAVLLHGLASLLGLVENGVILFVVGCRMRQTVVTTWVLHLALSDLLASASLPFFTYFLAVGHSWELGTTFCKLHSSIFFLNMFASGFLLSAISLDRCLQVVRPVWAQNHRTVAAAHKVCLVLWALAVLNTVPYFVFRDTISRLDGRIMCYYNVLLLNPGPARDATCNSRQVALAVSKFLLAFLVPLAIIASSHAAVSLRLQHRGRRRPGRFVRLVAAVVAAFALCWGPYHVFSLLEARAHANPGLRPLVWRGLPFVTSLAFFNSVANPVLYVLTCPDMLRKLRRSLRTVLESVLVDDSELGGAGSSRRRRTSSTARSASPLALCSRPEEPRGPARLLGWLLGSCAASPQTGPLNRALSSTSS
Procedure: as §1, §2, §3, §4, §5, §6, §7, §8

B1: LV0HV1: humanized Lym2 antibody, VL LV0 (SEQ ID NO: 33), VH HV1 (SEQ ID NO: 51) (antibody, V domains shown)
VH: EVQLVESGGGVVQPGRSLRLSCAASGFTFSNYYMAWVRQAPGKGLEWVATISYDGSSTYYRDSVKGRFTISRDNAKNSLYLQMNSLRAEDTATYYCARHRGYYYSGAGYFDYWGQGTMVTVSS
VL: DIVMTQTPLSLPVTPGESASISCRSSQSLEYSDGYTYLEWYLQKPGQSPQVLIYGVSNRFSGVPDRFSGSGSGTDFTLKISRVEAEDVGVYYCFQATHDPLTFGQGTKLEIK
B1 was tested, and the “reactivity against cells expressing mutated human CRTH2” value [1] was “lost” and the “reactivity against cells expressing mutated human CRTH2” value [2] was “lost”.
